Experimental data taken from PMC3458543.

Biological target: T1, His-Six1-HD (Mus musculus, UniProt Q62231 110-201)
T1 sequence: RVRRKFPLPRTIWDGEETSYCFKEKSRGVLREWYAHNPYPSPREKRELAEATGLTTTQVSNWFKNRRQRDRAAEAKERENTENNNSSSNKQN
Assay: EMSA

B1: Myog_mut34 (dsDNA)
DNA 1: GTTAGAGGGGGTATCAGGTTTGTGTGGCGTTGGC
DNA 2: GCCAACGCCACACAAACCTGATACCCCCTCTAAC
B1: binds.
